Data as given in paper PMC5612032.

Molecular target: Amyloid-β peptide Aβ(1-42)
Assay: NMR titration; 5 μM soluble pEAβ(3-42), 5% Aβ(1-42) fibrils added directly; decrease of the NMR signal of soluble pEAβ(3-42) within ca. 10 min; 10 mM sodium phosphate pH 7.4, 37 °C

Substance: Pyroglutamate-modified amyloid-β pEAβ(3-42) (peptide)
- decrease in NMR signal intensity of soluble pEAβ(3-42): 50%
- stoichiometry N (pEAβ(3-42) : Aβ(1-42) in fibrils): 10
